Experimental data reported in article PMC8078012 (Cell systems, 2020).

Biological target: MBP-GSK3β-HA-His (human, UniProt P49841 1-420, phosphotyrosine at 216 (activation loop))
Assay: BLI

Sequence of MBP-GSK3β-HA-His (P49841 whole entry): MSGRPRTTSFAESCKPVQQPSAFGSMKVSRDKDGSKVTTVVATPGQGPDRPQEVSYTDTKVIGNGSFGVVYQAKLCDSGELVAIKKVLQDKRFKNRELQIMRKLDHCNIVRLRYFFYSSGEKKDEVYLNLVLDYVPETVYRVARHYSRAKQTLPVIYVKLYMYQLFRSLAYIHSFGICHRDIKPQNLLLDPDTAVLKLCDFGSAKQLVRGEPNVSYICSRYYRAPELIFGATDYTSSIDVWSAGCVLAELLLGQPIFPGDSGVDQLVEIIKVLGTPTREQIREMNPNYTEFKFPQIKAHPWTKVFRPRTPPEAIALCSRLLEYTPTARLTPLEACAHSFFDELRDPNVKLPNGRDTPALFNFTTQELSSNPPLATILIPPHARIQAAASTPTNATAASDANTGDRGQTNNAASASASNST

Kd: 16 nM
B1: MBP-Axin_(384-518)-His (miniAxin) (domain or fragment, human, UniProt O15169-2 384-518, looked up)
chain: EPQKFAEELIHRLEAVQRTREAEEKLEERLKRVRMEEEGEDGDPSSGPPGPCHKLPPAPAWHHFPPRCVDMGCAGLRDAHEENPESILDEHVQRVLRTPGRQSPGPGHRSPDSGHVAKMPVALGGAASGHGKHVP
modifications: biotin (NHS-PEG4-biotin, molar coupling ratio 1:1) where it was immobilised (assay with GSK3β)
